According to doi:10.1101/2023.11.20.565808 (bioRxiv, 2023):

Target: GST-fused RACK1, WT (human, UniProt P63244 1-317)
Assay: pull-down

B1: His6-YTHDF2, WT (FL) (natural protein)
chain: MSASSLLEQRPKGQGNKVQNGSVHQKDGLNDDDFEPYLSPQARPNNAYTAMSDSYLPSYYSPSIGFSYSLGEAAWSTGGDTAMPYLTSYGQLSNGEPHFLPDAMFGQPGALGSTPFLGQHGFNFFPSGIDFSAWGNNSSQGQSTQSSGYSSNYAYAPSSLGGAMIDGQSAFANETLNKAPGMNTIDQGMAALKLGSTEVASNVPKVVGSAVGSGSITSNIVASNSLPPATIAPPKPASWADIASKPAKQQPKLKTKNGIAGSSLPPPPIKHNMDIGTWDNKGPVAKAPSQALVQNIGQPTQGSPQPVGQQANNSPPVAQASVGQQTQPLPPPPPQPAQLSVQQQAAQPTRWVAPRNRGSGFGHNGVDGNGVGQSQAGSGSTPSEPHPVLEKLRSINNYNPKDFDWNLKHGRVFIIKSYSEDDIHRSIKYNIWCSTEHGNKRLDAAYRSMNGKGPVYLLFSVNGSGHFCGVAEMKSAVDYNTCAGVWSQDKWKGRFDVRWIFVKDVPNSQLRHIRLENNENKPVTNSRDTQEVPLEKAKQVLKIIASYKHTTSIFDDFSHYEKRQEEEESVKKERQGRGK
  binding result: binds
